# Test results taken from article PMC5062967 (Nucleic Acids Research, 2016).
# T1: human 5MP2 (ITC sample) (human, UniProt Q7L1Q6 1-419)
# T1 sequence: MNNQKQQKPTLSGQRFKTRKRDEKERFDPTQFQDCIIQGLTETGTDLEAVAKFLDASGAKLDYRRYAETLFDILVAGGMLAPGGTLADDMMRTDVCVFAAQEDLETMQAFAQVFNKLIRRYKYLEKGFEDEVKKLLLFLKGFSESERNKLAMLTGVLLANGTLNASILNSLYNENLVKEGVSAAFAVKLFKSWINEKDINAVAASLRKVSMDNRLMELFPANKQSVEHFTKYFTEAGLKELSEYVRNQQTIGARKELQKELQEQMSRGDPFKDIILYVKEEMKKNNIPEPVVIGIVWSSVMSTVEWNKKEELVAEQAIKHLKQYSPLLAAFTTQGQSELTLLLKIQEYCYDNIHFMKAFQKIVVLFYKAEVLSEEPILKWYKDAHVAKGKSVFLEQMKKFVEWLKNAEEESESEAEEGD
# B1: Human eIF2β_(53-136) carrying two K-boxes (domain or fragment)
# chain: DLEADEEDTRKKDASDDLDDLNFFNQKKKKKKTKKIFDIDEAEEGVKDLKIESDVQEPTEPEDDLDIMLGNKKKKKKNVKFPDE
# Target: T1, human 5MP2 (ITC sample)
# Experiment: ITC
binder,measurement,value
B1,Kd,1500 nM
